The record followed here is US20160002326A1 (AbbVie / Abbott, published 2016).

In experiment [1] the target is T1, human TNF-α (human, UniProt P01375 77-233).
T1 construct: also called hTNF-α; hTNF
Briefly: assay not stated; rounded figure in the dose-selection text, assay not stated.

The next experiment addresses T2, IL-17C (UniProt Q9P0M4 19-197).
T2 sequence (looked up): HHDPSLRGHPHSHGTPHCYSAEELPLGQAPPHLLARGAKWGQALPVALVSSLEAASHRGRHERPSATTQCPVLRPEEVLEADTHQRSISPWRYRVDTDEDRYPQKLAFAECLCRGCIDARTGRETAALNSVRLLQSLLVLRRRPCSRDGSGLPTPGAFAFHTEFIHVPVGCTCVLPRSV
Briefly: direct ELISA. On the technique in general: ELISA stands for enzyme-linked immunosorbent assay.

The target of another experiment is BAFF (UniProt Q9Y275 134-285). Briefly: direct ELISA.
BAFF, sequence (Q9Y275 134-285 limits assumed): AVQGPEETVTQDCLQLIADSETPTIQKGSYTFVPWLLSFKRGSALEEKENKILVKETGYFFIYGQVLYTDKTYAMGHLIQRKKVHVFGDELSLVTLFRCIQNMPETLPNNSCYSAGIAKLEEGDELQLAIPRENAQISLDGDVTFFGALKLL
The next experiment addresses T3, RANK ligand (UniProt O14788 140-317).
T3 sequence (looked up): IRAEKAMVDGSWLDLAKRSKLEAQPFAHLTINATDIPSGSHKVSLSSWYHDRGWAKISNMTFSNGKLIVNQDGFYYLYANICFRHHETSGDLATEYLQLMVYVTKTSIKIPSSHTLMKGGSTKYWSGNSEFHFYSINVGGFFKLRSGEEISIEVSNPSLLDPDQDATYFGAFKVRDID
Briefly: direct ELISA.

The next experiment deals with T4, GITR ligand (UniProt Q9UNG2 52-177).
T4 sequence (looked up): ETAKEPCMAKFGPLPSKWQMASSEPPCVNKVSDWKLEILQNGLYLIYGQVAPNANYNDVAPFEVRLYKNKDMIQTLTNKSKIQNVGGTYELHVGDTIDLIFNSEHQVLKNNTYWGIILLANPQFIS
Briefly: direct ELISA.

The next experiment addresses T5, IL-17E (IL-25) (UniProt Q9H293 33-177).
T5 sequence (looked up): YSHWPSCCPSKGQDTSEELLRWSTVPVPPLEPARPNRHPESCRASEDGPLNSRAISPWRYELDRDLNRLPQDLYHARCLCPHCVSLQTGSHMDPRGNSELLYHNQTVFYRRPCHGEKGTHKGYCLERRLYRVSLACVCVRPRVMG
Briefly: direct ELISA.

A further experiment has as its target T6, TL1A (UniProt O95150 72-251).
T6 sequence (looked up): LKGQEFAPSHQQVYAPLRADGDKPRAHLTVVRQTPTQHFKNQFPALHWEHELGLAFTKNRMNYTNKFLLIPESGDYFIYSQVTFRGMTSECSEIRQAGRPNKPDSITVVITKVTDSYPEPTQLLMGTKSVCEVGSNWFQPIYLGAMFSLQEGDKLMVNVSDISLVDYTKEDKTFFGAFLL
Briefly: direct ELISA.

In a further experiment the target is T7, mouse IL-17 (mouse, UniProt Q62386 26-158, limits assumed).
T7 construct: also called mouse IL-17A; rodent IL-17 (mouse)
T7 sequence (looked up): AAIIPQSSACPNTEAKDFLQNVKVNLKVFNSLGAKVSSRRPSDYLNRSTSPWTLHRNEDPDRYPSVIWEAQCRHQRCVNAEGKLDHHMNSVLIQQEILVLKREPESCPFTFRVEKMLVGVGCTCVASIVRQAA
Put plainly: Biacore SPR, 3 experiments; unit not printed in Table 10. Background: SPR reads the build-up and loss of mass on a sensor chip optically.

For experiment [2], the target named is T8, monkey (Rhesus/Cynomolgus) TNF (monkey (Rhesus/Cynomolgus), UniProt P48094 77-233).
T8 construct: also called monkey TNF; monkey rTNF
T8 sequence (P48094 77-233 limits assumed): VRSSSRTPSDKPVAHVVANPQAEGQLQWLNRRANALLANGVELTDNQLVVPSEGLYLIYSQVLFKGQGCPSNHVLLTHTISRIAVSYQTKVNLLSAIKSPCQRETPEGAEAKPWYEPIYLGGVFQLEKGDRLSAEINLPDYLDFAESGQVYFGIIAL
The experiment is described as above.

The target of another experiment is T9, rat IL-17 (rat, UniProt Q61453 18-150, limits assumed).
T9 construct: also called rodent IL-17 (rat)
T9 sequence (looked up): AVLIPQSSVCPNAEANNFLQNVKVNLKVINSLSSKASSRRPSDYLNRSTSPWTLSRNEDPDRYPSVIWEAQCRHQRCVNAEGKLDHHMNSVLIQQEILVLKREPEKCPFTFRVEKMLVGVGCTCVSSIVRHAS
The description is as above.

The target of experiment [3] is T10, monkey (Rhesus/Cynomolgus) IL-17 (monkey (Rhesus/Cynomolgus), UniProt F6T3G5 24-155).
T10 construct: also called monkey IL-17; monkey rIL-17
T10 sequence: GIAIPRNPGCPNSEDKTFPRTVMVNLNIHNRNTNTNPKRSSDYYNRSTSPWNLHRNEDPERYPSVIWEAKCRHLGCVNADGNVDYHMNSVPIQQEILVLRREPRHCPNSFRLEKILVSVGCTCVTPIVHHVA
The experiment is described as above.

For experiment [4], the target named is T11, human IL-17A/A homodimer (human, UniProt Q16552 24-155).
T11 construct: also called hIL-17A/A
T11 sequence: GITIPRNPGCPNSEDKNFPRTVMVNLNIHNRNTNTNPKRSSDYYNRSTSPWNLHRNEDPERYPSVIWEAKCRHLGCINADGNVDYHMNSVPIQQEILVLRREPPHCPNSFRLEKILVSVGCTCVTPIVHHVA
Briefly: Biacore SPR, 3 experiments; same value as Table 7; unit not printed in Table 10.
From the text: (§1) The apparent association rate (ka) and dissociation rate (kd) were derived and used to calculate the overall equilibrium dissociation constant (KD) for the interaction.

The target of experiment [5] is T1, human TNF-α. Described as above.
From the text: as §1
Experiment [6] has as its target T1, human TNF-α. Briefly: Biacore SPR, recombinant antigen, mean of 3 experiments; exponent as printed.
The target in experiment [7] is T12, human IL-17A/F heterodimer (human, UniProt Q16552 24-155; Q96PD4 31-163).
T12 construct: also called hIL-17A/F
T12 sequence 1: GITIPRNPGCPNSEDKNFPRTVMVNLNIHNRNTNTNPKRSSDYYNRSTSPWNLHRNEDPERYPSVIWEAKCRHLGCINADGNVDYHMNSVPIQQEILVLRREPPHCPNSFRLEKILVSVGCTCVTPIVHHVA
T12 sequence 2: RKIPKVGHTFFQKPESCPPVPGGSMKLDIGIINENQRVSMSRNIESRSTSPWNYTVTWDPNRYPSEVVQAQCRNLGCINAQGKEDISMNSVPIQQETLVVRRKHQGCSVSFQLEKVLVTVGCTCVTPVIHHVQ
Briefly: Biacore SPR, recombinant antigen, mean of 3 experiments.
From the text: as §1

Experiment [8] concerns the target T11, human IL-17A/A homodimer. The description is as above.
From the text: as §1
Experiment [9] addresses T1, human TNF-α. The experiment is described as above.
From the text: as §1

T1 sequence (P01375 77-233 limits assumed): as the sequence (P48094 77-233 limits assumed) above, with T44R, N72T, L138R counted along it

B1: ABBV-257 anti-human TNF and IL-17 DVD-Ig binding protein (bispecific antibody, human IgG1, kappa, L234A L235A)
heavy: EVQLVQSGAEVKKPGASVKVSCKASGYTFANYGIIWVRQAPGQGLEWMGWINTYTGKPTYAQKFQGRVTMTTDTSTSTAYMELSSLRSEDTAVYYCARKLFTTMDVTDNAMDYWGQGTTVTVSSGGGGSGGGGSEVQLVQSGAEVKKPGSSVKVSCKASGYTFTDYEIHWVRQAPGQGLEWMGVNDPESGGTFYNQKFDGRVTLTADESTSTAYMELSSLRSEDTAVYYCTRYSKWDSFDGMDYWGQGTTVTVSSASTKGPSVFPLAPSSKSTSGGTAALGCLVKDYFPEPVTVSWNSGALTSGVHTFPAVLQSSGLYSLSSVVTVPSSSLGTQTYICNVNHKPSNTKVDKKVEPKSCDKTHTCPPCPAPEAAGGPSVFLFPPKPKDQLMISRTPEVTCVVVDVSHEDPEVKFNWYVDGVEVHNAKTKPREEQYNSTYRVVSVLTVLHQDWLNGKEYKCKVSNKALPAPIEKTISKAKGQPREPQVYTLPPSREEMTKNQVSLTCLVKGFYPSDIAVEWESNGQPENNYKTTPPVLDSDGSFFLYSKLTVDKSRWQQGNVFSCSVLHEALHNHYTQKSLSLSPGK
light: DIQMTQSPSSLSASVGDRVTITCRASQDISQYLNWYQQKPGKAPKLLIYYTSRLQSGVPSRFSGSGSGTDFTLTISSLQPEDFATYFCQQGNTWPPTFGQGTKLEIKRGGSGGGGSGDIQMTQSPSSLSASVGDRVTITCRASSGIISYIDWFQQKPGKAPKRLIYATFDLASGVPSRFSGSGSGTDYTLTISSLQPEDFATYYCRQVGSYPETFGQGTKLEIKRTVAAPSVFIFPPSDEQLKSGTASVVCLLNNFYPREAKVQWKVDNALQSGNSQESVTEQDSKDSTYSLSSTLTLSKADYEKHKVYACEVTHQGLSSPVTKSFNRGEC
modifications: N-linked glycans on the heavy chain at the asparagine commonly modified on IgG1 antibodies (fucosylated biantennary oligosaccharides with 0, 1 or 2 galactose residues)
notes: It says the constant region carries L234A, L235A and also T250Q and M428L; also called Anti-IL-17/TNF DVD-Ig Protein
On to B1, for which the dissociation constant (Kd) with human TNF-α [1] is 5 pM; in the experiment with mouse IL-17, 72 pM; in experiment [2], 24 pM; in the experiment with rat IL-17, < 35 pM; in [3], 11 pM; with human IL-17A/A homodimer [4] it was 3 pM. For the same molecule, the Kd with human TNF-α [5] was found to be 4.9 pM; in [7] it was 14 pM; with human IL-17A/A homodimer [8], 3 pM; with human TNF-α [9] it was 4.9 pM. Also, the binding result in the experiment with IL-17C, with BAFF, in the experiment with RANK ligand, with GITR ligand, with IL-17E (IL-25) and in the experiment with TL1A was “no binding” each time. The koff with human TNF-α [6] turned out to be 1.6e-05 s⁻¹; in experiment [7] it was 4.8e-06 s⁻¹; with human IL-17A/A homodimer [8], 3e-06 s⁻¹. The kon in experiment [7] was found to be 340000 M⁻¹ s⁻¹; with human IL-17A/A homodimer [8], 1.1e+06 M⁻¹ s⁻¹; with human TNF-α [9], 3.3e+06 M⁻¹ s⁻¹.

What is called Kd is the concentration at which binding is half-saturated. One may read the koff as a measure of how fast the partners let go of each other. Broadly, the kon is a measure of how fast the partners come together.
